Biological target: MagD, the Type II alpha-2-macroglobulin from Pseudomonas aeruginosa (Pseudomonas aeruginosa) (UniProt Q9HVT2)
Test: AUC; sedimentation velocity, 35,000 rpm, 20 °C, absorbance at 280 nm; 0.25, 0.5 and 1 mg/mL; 25 mM HEPES pH 7.5, 100 mM NaCl; c(s) analysis with Sedfit; co-purified complexes after analytical gel filtration

| Substance | stoichiometry N |
| --- | --- |
| MagA (natural protein) | 1 |
| MagB (natural protein) | 1 |
| MagF (natural protein) | 1 |

Source: paper PMC5764988
